For this experiment, the target named is T1, human CDH17, full length, expressed on cells (HEK293-hCDH17); AsPC-1, HCT-8, AGS, LoVo, KATO III, HT-29 tumor … (human, UniProt Q12864 23-832).
T1 construct: also called human CDH17 expressed on tumor cells
T1 sequence: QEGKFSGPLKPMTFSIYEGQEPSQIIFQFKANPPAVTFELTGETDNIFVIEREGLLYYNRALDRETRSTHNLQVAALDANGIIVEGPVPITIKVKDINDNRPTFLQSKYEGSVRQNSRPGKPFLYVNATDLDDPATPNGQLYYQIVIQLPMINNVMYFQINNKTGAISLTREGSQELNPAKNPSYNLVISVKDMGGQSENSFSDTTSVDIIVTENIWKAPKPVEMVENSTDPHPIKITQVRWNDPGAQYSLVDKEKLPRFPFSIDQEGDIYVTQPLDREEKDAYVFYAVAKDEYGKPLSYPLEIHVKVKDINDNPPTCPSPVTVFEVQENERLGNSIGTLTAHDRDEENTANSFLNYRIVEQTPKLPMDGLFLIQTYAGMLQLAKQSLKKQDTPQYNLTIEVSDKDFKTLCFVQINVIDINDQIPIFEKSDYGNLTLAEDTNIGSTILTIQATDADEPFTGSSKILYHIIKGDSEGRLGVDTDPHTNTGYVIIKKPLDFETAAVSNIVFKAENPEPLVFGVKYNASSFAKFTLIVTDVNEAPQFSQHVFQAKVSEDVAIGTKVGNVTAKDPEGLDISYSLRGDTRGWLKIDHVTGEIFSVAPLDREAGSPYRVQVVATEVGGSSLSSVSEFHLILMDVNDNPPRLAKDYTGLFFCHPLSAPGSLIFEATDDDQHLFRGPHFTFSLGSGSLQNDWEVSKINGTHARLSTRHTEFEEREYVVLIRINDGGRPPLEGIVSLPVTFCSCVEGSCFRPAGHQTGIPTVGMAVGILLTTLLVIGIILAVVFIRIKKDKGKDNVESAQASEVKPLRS
Nature of the experiment: flow cytometry, AsPC-1, AGS, KATO III and HT-29 cells. (In general: A flow cytometer gives signals particle by particle.)

The results in this text go back to patent publication EP4806514A2 (Lepu Biopharma Co., Ltd., dated 2025).

B1: 29D2D7-z19p3-DXd (antibody, V domains shown)
VH: QVQLVQSGAEVKKPGASVKVSCKASGYTFTDYDMHWVKQAPGQGLEWIGGFDPESAGTVYNLRFKDKATLTADKSTSTAYMELRSLRSEDTAVYYCARKGYYSVSSPFTYWGQGTLVTVSS
VL: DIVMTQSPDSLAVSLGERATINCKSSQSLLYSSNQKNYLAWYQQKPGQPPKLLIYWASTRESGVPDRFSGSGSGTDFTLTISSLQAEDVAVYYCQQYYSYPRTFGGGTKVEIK
modifications: MC-GGFG-DXd (deruxtecan) conjugated to the antibody, DAR around 7.50-7.90; sites not given
notes: also called 29D2D7-z19-MC-GGFG-DXd
For the molecule B1, the binding result is listed as “binds”.
